Assay: yeast display, Sf9 membrane polyspecificity reagent, FACS + sequencing; frameworks hold sequencing errors
Procedure, shortened: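 Using colony PCR, genes from sorted yeast display clones were amplified, then sequenced on MiSeq at 2 × 250 and filtered by CDR length. The clones had been stained with 10% biotinylated, detergent-solubilized Sf9 membrane reagent for 1 hour at 4 °C and sorted by FACS into low and high (top ~1%) gates on anti-HA and streptavidin fluorescence. Polyreactivity labels come from the gate of origin.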

Sequence | polyreactivity (PSR sort gate)
QVQLVESGGGLVQAGGSLRLSCAASGITFNHYTMGWYRQAPGKERELVAAISSRGSTTYYADSVKGRFTISRDNAKNTVYLQMNSLKPEDTAVYYCAARYPTYYRPRYRGRPGYDYWGKGTQVTVSS | high polyreactivity
QVQLVESGGGLVQAGGSLRLSCAASGSIFGYNAMGWYRQAPGKERELVAAITSSGGSTYNADSVKGRFTISRDNAKNTVYLQMNSLKPEDTAFYYCNSRDWYIVWYDYWGQGTQVTVSS | low polyreactivity
QVQLVESGGGLVQAGGSLRLSCAASGSTFRSYAMGWNRQAPGKERELVAAISGRGGNTYYADSVKGRFTISRDNAKNTVYLLMNSLKPEDTAVYYCARKTVYYGSDYWGQGTQVTVSS | high polyreactivity
QVQLVESGGGLVQAGGSLRLSCAASGYTFSVNAMGWYRQAPGKESELVATITSSGGGTYYADSVKGRFTISRDNAKNTVYLQMNSLKPEDTAVYYCAADGYWYGDIYPSDYRWYDYWGQGTQVTVSS | low polyreactivity
QVQIVESGGAFVQAGGSLRLRCEASGSTFVNKDMGWSRPAPGKEREFVAAIRNTGGRTYYADSVKGRFTISRDNAKNSVYLQMNSLKPEDTAVYYCAAVSRVRTLWRMDYWGQGTQVTVSS | high polyreactivity
QVQLVESGGGLVQAGGSLRLSCADSGRIFYANAMGWYRQAPGKERELVAAISSGGSTYYADSVKGRFTISRDNAKNTVYLQMNSLKPEDTAVYYCAVYTHKIVRPEYDYWGQGTQVTVSA | low polyreactivity
QVQLVESGGGLVQAGGSLRLSCAASGRIFRVYAMGWYRQAPGKERELVAAISSGGSTNYADSVKGRFTISRDNANNTVYLQMNSLKPEDTAVYYCAATVRGVGYRYYYWGQGTQVTVSS | high polyreactivity
QVQLVESGGGLVQAGGSLRLSCAASGSTFVFYTMGWYRQAPGKEREFVASISGSGGSTYYADSVKGRFTISRDNAKNTVYLQMNSLKPEVSAVYYCAAGYPYYYWTPYYYWGQGTQVTLSS | high polyreactivity
QVQLVESGAGLVQAGGSLRLSCAASGSTFDAYALGWSRPAPGKERELVAGISSGGSYEFADSVKGRFTISRDYAKNTVYVQMNSLKPEDTAVYYCAADSRQSDYYYQPTKFDYWGQGTQVTVSS | low polyreactivity
QVQLVESGGGLVQAGGSLRLSCAASGLTFQSNAMGWSRQAPGKEREFVAAITSGGNTYYADSVKGRFTISRDNAKNTVYLQMNSLKPEDTAVYYCNADYQDEEDDYWGQGTQVTVSS | low polyreactivity
QVQLVESGGGLVQARGSLRLSCAASGSIFRGYGMRRYIQAPGKERELVAAINYSGGSTYYADSVKGRFTISRDNAKNTVYLQMNSLKPEDTGVYYCNNDYYRQRGEYYYWGQGTQVTVSS | high polyreactivity
QVQLVESGGGLVQAGGILRLSCAASGLIFGYYDMGWYRQARGKEREFVAGITYRGSSTYYADSVKGRFTISRDNAKNTVYLQMNSLKPEDTAVYYCAKYKRKKLTTNYYYWGQGTQVTVSS | high polyreactivity
QVQLVESGGGLVQAGGSLRLSCAASGSTFRGYAMGWYRKATGKERELVATNSGSDGTTYYADSVKGRFTISRENAKNTVYLQMNSLKPEDTAVYYCAAGETFEMYYWGQGTQVTVSS | low polyreactivity
QVQLVESGGGLVQAGGSLRLSCAASGSIFGGNAMGWYRQAPGKERELVAAITDGGNTNYADSVKGRFTISRDNAKNTVYLQINSLKPEDTAVYYCAARIPGTYGGRYGYDYWGQGTQVTVSS | low polyreactivity
QVQLVESGRGLVQAGGSLRLSCAASGFTQPANGMGWYRQAPGIERELVAAISFIAGSTYYADSVKGRFTISRDNAKNTVYLQMNSLKPEDTAVYYCATLFPPSTIYDYWGQGTQVTVSS | low polyreactivity
QVQLVESVGGLVQAGGSLRLSCAASGRTFYQYALGWYRQAPGKERELVAVINGGGSTNYADSVKGRFTISRDNAKNTVYLQMNSLKPEDTAVYYCNADGRRGRYDYWGQGTQVTVSS | low polyreactivity

Sequence | polyreactivity (PSR sort gate)
QGQLVESGGGLVQAGGSLRLSCAASGSIFDLNAMGWYRQAPGKERELVAAISTGGGTYYADSVKGRFTISRDTAKNTVYLQMNRLKPEDTAVYYCNRVTRWTYNYWGQGTQVTVSS | high polyreactivity
QVQLVESGGGLVQAGGSLRLSCAASGFTFLPYVMGWYRQAPGKERELVAAISSSGGSTYYADSVKGRFTISRDNAKNTVYLQMNSLKPEDTAVYYCAKEIGVRRRDYEDYEYWGQGTQVTVSS | low polyreactivity
QVQLVESGGGLVQAGGSLRLSCAASGSIIVWNAMGWYRQAPGKERELVASITSGASTYYADSVKGRFTISRDNAKNTVYLQMNSLKPEDTAVYFCAAYYGYTDVWYLYSGYNYWGQGTQVTVSS | low polyreactivity
QVQLVESGGGLVQAGGSLRLSCAASGITIRYYTMGWYRQAPGKESELVASISWSGTSTHYADSVKGRFTISRDNAKNTVYLQMNSLKPEDTAVYYCAATITSLAGVYRNGYTSYYWGQGTQVTVSS | high polyreactivity
QVQLVESGGGLVQAGGSLRLSCAASGRTFGLNVMGWYRQAPGKERELVATISGVGSTNYADSVKGRFTISRDNAKNTVYLQMNSLKPEDTAVYYCDKDPHVGRWWDLYSPYYSWGQGTQVTVSS | low polyreactivity
QVQLVESGGGLVQAGGSLRLSCAASGSIFPQYAMGWYRQAPGKERELVAVISWSGGRTYYADSVKGRFTISRDNAKNTVYLQMNSLKPEDTAVYYCAAKYWYQRYPQSSYTRYYWGQGTQVTVSS | high polyreactivity
QVQLVESGGGLVQAGGSLRLSCAASGRTFTSYAMGWYRQAPGKERELVAAISGNGVTTYYADSVKGRFTISRDNAKNTLYLQINSLKPEDTAVYYCAAGQRRFGYYYWGQGTQVTVSS | high polyreactivity
QVQLVESGGGLVQAGGSLRLSCAASGRIFPSYMGWYRQAPGKERELVARISNTGSTYYADSVKGRFTISRDNAKNTVYIQMNSLKPEDTAVYYCAAVYIFRVFSHPPYDYWGQGTQVTVSS | low polyreactivity
QVQLVESGGGLVQAGGSLRLSCAASGSIFAVYAMGWYRQAPGKERELVASISRRGGSTYYADSVKGRFTISRDNAKNTVYLQMNSLKPEDTAVYYCAATGRRGYGYGYWGQGTQVTVSS | high polyreactivity
QVQLVESGGGLVQAGGSLRVSCAASGGTFGNNDMGWYRQAPGKEWELFAAIRAAGTTYYADSVKGRFTISRDNAKNTVYLQMNSLKPEDTAVYYCIADTTGYWSYGFQYYGEDYWGQGTQVTVSS | low polyreactivity
QVQLVESGGGLVQAGGSLRLSCAASGFTLVLNAMGWYRQAPGKERELVAAIRRSAGSTYYADSVKGRFTISRDNAKNTVYLQLNSLKPEDTAVYYCAACFLWAKYAYGHWGTFNYWGQGTQVTVSS | low polyreactivity
QVQLVESGGGLVQAGGSLRLSCAASGRTFLPNAMGWYRQAPGKERELVAVITSGGSTNYADSVKGRFTISRDNAKNTVYLQMNSLKPEDTAVYYCAADWWRVEMEYWGQGTQVTVSS | low polyreactivity
QVQLVESGGGLVQAGGSLRLSCAASGSIFVPYAMGWYRQAPGKERELVAAISYRGGNTYYADSVKGRFTISRDKAKNTVSLQMNSLKPEDTAVYYCNAGVSIGRSRRDDYWGQGTQVTVSS | low polyreactivity
QVQRVESGGGLVQAGGSLRLSCAASGRIFVAYVMGWYRQAPGKERELVAAITRSGGRTYYADSVKGRFTISRDNAKNTVYLQMNSLKPEDTAVYYCATDSGWSTYDYWGQGTQVSVSS | high polyreactivity
QVQLVQSGGGLVHAGGSLRLSCAASGRISFYYAMGWYRQAPGKERELVAAISRGGSTYYPDSVKGRFTISRDNAKNTVFLQMNSLKPEDTAVYYCAATYSGVDTPSGYDYWGQGTQVTVSS | low polyreactivity

— the nanobody polyreactivity screen of Harvey et al. (2022)
